Patent US20030091557A1 (Human Genome Sciences, published 2003)
Bridges are numbered along the chain shown (N, C = ends).

What follows are binders tested against recombinant human ACE-2 (human, UniProt Q9BYF1 18-740, limits assumed) (assay: cell-based or functional assay).
Sequence of recombinant human ACE-2 (Q9BYF1 18-740 limits assumed): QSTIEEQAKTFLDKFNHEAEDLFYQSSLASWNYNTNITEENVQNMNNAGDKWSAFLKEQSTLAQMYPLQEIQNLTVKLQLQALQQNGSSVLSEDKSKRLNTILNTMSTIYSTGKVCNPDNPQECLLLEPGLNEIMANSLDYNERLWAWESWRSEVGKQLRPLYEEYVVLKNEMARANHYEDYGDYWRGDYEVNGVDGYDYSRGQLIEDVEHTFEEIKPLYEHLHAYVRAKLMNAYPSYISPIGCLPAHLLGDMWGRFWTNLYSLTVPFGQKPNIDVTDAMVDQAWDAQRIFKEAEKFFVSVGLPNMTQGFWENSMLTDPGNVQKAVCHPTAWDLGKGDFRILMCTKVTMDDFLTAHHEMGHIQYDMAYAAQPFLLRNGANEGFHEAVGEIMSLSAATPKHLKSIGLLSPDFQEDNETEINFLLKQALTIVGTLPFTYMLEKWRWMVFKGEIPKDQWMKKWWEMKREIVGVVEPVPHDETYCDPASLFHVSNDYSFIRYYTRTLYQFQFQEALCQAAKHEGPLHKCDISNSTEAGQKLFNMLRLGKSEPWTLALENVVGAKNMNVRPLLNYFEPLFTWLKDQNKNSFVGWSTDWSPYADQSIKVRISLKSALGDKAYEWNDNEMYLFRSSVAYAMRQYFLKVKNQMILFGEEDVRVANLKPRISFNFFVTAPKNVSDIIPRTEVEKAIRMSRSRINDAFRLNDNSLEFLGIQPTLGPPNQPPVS

Binder | IC50 µM (ACE-2 cleavage of M-2195, fluorometric) [µM]
Ac-GDRYLCLPQRDKPWKFCNWFDPEGGG-NH2 (disulfide 6-17 (inferred); also: oxidized) [DX-599] | 0.14
Ac-GSRIGCRDSRCNWWAPGEGGG-NH2 (disulfide 6-11 (inferred); also: oxidized) [DX-524] | 0.6
Ac-GSRGFCRDSSCSFPAPGEGGG-NH2 (disulfide 6-11 (inferred); also: oxidized) [DX-525] | 1
Ac-GDLHACRPVRGDPWWACTLGDPEGGG-NH2 (disulfide 6-17 (inferred); also: oxidized) [DX-513] | 0.09
Ac-GDRLHCKPQRQSPWMKCQHLDPEGGG-NH2 (disulfide 6-17 (inferred)) [DX-512] | 0.06
Ac-GDFSPCKALRHSPWWVCPSGDPEGGG-NH2 (disulfide 6-17 (inferred)) [DX-602] | 0.12
Ac-AGSDWCGTWNNPCFHQGTEGGG-NH2 (disulfide 6-13 (inferred); also: oxidized) [DX-531] | 0.5
Ac-GDGFTCSPIRMFPWFRCDLGDPEGGG-NH2 (disulfide 6-17 (inferred)) [DX-601] | 0.068
Ac-AGWEVCHWAPMMCKHGGTEGGG-NH2 (disulfide 6-13 (inferred); also: oxidized) [DX-529] | 0.4
Ac-AGQKECKFGYPHCLPWGTEGGG-NH2 (disulfide 6-13 (inferred); also: oxidized) [DX-530] | 30
